Source: paper PMC8444450 (2021)

Legend:
[1] = biological target: T1, SARS-CoV-2 spike receptor-binding domain (amino acids 333–529), bacteria-expressed and refolded (SARS-CoV-2, UniProt P0DTC2 333-529); assay: SPR
[2] = biological target: T1, SARS-CoV-2 spike receptor-binding …; assay: SPR; remark: listed apart in the source

Row | Binder | koff [1] | Kd [2]
1 | sybody Sb15 (VHH) VHH: QVQLVESGGGLVQAGGSLRLSCAASGFPVKNFEMEWYRKAPGKEREWVAAIQSGGVETYYADSVKGRFTISRDNAKNTVYLQMNSLKPEDTAVYYCFVYVGRSYIGQGTQVTVS | 0.011 s⁻¹ | –
2 | sybody Sb16 (VHH) VHH: QVQLVESGGGLVQAGGSLRLSCAASGFPVAYKTMWWYRQAPGKEREWVAAIESYGIKWTRYADSVKGRFTISRDNAKNTVYLQMNSLKPEDTAVYYCIVWVGAQYHGQGTQVTVSA | 0.02 s⁻¹ | 40.6 nM
3 | sybody Sb14 (VHH) VHH: QVQLVESGGGLVQAGGSLRLSCAASGFPVQAREMEWYRQAPGKEREWVAAIKSTGTYTAYAYSVKGRFTISRDNAKNTVYLQMNSLKPEDTAVYYCYVYVGSSYIGQGTQVTVSA | 0.007 s⁻¹ | 13.8 nM
4 | sybody Sb68 (VHH) VHH: QVQLVESGGGSVQAGGSLRLSCAASGSISSITYLGWFRQAPGKEREGVAALITVNGHTYYADSVKGRFTVSLDNAKNTVYLQMNSLKPEDTALYYCAAAAWGYAWPLHQDDYWYWGQGTQVTVSA | 0.023 s⁻¹ | –
